Data set [1] relates to FXII. The data set can be described thus: TGF-β1-induced FXII expression in HLF. The data set is classed as cell-based, human. Particulars: HLF treated with inhibitor 1 h prior to TGF-β1 for 48 h. On the procedure: Human lung specimens of the pulmonary parenchyma and mouse lungs were chopped into <1 mm^3 pieces. The minced pieces were washed twice with PBS and then plated in 100-mm dishes (Greiner-bio-one, Frickenhausen, Germany). The specimens were cultured with Dulbecco's modified Eagle's medium (DMEM; Invitrogen, Karlsruhe, Germany) supplemented with 10% fetal calf serum (FCS; HyClone, South Logan, UT), and 1% penicillin/streptomycin (Invitrogen) in humidified atmosphere of 5% CO2 at 37° C. Purity of isolated fibroblasts was verified by positive staining for vimentin, fibronectin and collagen IV. All experiments were carried out with lung fibroblasts from passages 3-4. The mouse NIH3T3 fibroblasts were cultured in DMEM supplemented with 10% FCS, and 1% penicillin/streptomycin in humidified atmosphere of 5% CO2 at 37° C.
(§1) Proteins separated on SDS polyacrylamide gel were transferred to a PVDF membrane (Amersham Biosciences, Freiburg, Germany) using wet transfer technique in transfer buffer (25 mM Tris, 192 mM Glycine, 20% (v/v) Methanol) for 1 h at 100V. After blocking with 5% non-fat dry milk in tris-buffered saline (TBS; 25 mM Tris-Cl, 150 mM NaCl, pH 7.5) containing 0.1% (v/v) Tween 20 (TBS-T), the membranes were incubated at 4° C. overnight with appropriate primary antibody diluted in 1% BSA in TBS-T. After 1 h incubation with peroxidase-labelled secondary antibody (all from Dako, Gostrup, Denmark) proteins were detected using ECL Plus Kit (Amersham Biosciences, Freiburg, Germany). To determine the amounts of protein loaded on the gel, blots were in 1 hour (stripping buffer: 100 mM Glycine, 1% HCl) and reprobed using an anti-β-actin or appropriate anti-pan antibody.
Pre-designed, commercially available siRNA sequences directed against human Smad 3 (Dharmacon, Chicago, Ill.), human JNK1 (Abnova, Heidelberg, Germany), and an universal negative-control siRNA (Ambion, Austin, Tex.) were employed. Cells were treated with siRNA (250 nM each) using the X-treme Gene siRNA Transfection Reagent (Roche). The siRNA-mediated downregulation of the target genes was assessed 72 h after transfection by Western blotting.

In data set [2] the test system is Smad 3. The data set can be described thus: Western blot of Smad 3 phosphorylation in TGF-β1 treated HLF. The data set is classed as cell-based, human. On the procedure: as §1
In another data set the test system is JNK. As to the kind of experiment: Western blot of JNK activity in TGF-β1 treated HLF. The class given is cell-based, human.
Data set [3] deals with Smad 3. The data set can be described thus: TGF-β1 driven translocation of phospho-Smad 3 to the nucleus in HLF. The data set is classed as cell-based, human. On the procedure:
as §1, with “antibody. […]” for “antibody.”
[…]. […] After boiling, the DNA-bound proteins were analyzed by Western blot using rabbit anti-phospho Smad 3 antibody (Cell Signaling). […]

For the next data set, the system named is Smad 3-SBE-272. The data set can be described thus: ChIP of the Smad 3-SBE-272 complex. The class given is cell-based, human. On the procedure:
ChIP was performed using Chromatin Immunoprecipitation Assay Kit from Millipore (Schwalbach, Germany) according to manufacturer's instruction. […] The cross-linked chromatin was then prepared and sonicated to an average size of 500-800 bp. The DNA fragments were immunoprecipitated with rabbit anti-Smad 3 antibody (Cell Signaling) or IgG isotype control overnight at 4° C. After reversal of cross-linking, the immunoprecipitated chromatin was amplified by PCR using following primers: human FXII-299 bp forward: [NT] ID NO:25); human FXII-299 bp reverse: [NT] ID NO:26).

The test system of the next data set is FXII promoter. The data set can be described thus: FXII promoter luciferase assay in NIH3T3 cells. To be noted: pGL3-299 construct; inhibitor 1 h prior to 10 ng/ml TGF-β1.
The target of data set [4] is T1, FXII (Homo sapiens, UniProt P00748).
T1 construct: increased enzymatic activity FXII in broncholaveolar lavage fluid (BALF) from IPF patients; from tissue; host or cells: bronchoalveolar lavage fluid (BALF) of IPF patients and donors
T1 sequence (P00748 20-615): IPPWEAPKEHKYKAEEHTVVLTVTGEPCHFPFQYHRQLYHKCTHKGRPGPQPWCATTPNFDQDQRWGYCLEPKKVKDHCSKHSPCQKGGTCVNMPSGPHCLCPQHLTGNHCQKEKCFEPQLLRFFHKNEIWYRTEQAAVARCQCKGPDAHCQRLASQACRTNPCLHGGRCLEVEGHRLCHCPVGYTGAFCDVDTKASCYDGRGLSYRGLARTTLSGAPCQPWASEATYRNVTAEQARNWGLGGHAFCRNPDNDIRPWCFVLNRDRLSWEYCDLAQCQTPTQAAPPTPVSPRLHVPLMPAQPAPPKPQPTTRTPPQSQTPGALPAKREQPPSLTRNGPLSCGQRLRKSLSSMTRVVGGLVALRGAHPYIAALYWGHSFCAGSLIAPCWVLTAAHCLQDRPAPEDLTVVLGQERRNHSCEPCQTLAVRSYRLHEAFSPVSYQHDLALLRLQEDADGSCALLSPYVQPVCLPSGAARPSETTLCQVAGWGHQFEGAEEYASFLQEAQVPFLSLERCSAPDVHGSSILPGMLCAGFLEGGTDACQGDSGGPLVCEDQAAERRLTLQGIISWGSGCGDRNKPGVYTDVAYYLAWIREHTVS
As to the kind of experiment: FXII activity assay using chromogenic substrate, BALF from IPF patients. The class given is biochemical. From the text: A test for determining the catalytic activity of FXIIa is described in Kannemeier C, Shibamiya A, Nakazawa F, Trusheim H, Ruppert C, Markart P, Song Y, Tzima E, Kennerknecht E, Niepmann M, Bruehl M L, Sedding D, Massberg S, Gunther A, Engelmann B, Preissner K T. Extracellular RNA constitutes a natural procoagulant cofactor in blood coagulation. Proc Natl Acad Sci USA. 104:6388-6393, 2007. Briefly, the FXIIa-sample and a chromogenic substrate peptide is mixed, and the release of p-nitroanilin is followed over time in a photometer at 405 nm. A compound is suitable as an inhibitor of the catalytic, in particular the enzymatic activity of FXIIa if it is capable of reducing the catalytic activity in that assay in a significant manner, preferably by at least 10%, more preferably by at least 25%, most preferably by at least 50% such as at least 75% or even at least 90%.

Another data set concerns murine lung fibroblasts. As to the kind of experiment: Proliferation assay, [3H]-thymidine incorporation after FXIIa stimulation. The data set is classed as cell-based. Particulars: added or preincubated 1-2 hours before FXIIa; 10.0 μM PD98059, 5 μM SP600125, 0.7 μM Wortmannin, 3 μM SB203580; blocking antibodies 5 μg/ml. On the procedure: Human lung specimens of the pulmonary parenchyma and mouse lungs were chopped into <1 mm^3 pieces. The minced pieces were washed twice with PBS and then plated in 100-mm dishes (Greiner-bio-one, Frickenhausen, Germany). The specimens were cultured with Dulbecco's modified Eagle's medium (DMEM; Invitrogen, Karlsruhe, Germany) supplemented with 10% fetal calf serum (FCS; HyClone, South Logan, UT), and 1% penicillin/streptomycin (Invitrogen) in humidified atmosphere of 5% CO2 at 37° C. Purity of isolated fibroblasts was verified by positive staining for vimentin, fibronectin and collagen IV. All experiments were carried out with lung fibroblasts from passages 3-4. The mouse NIH3T3 fibroblasts were cultured in DMEM supplemented with 10% FCS, and 1% penicillin/streptomycin in humidified atmosphere of 5% CO2 at 37° C. The primary murine lung fibroblasts were seeded in 48-well plates and starved in serum free DMEM (Dulbecco's Modified Eagle's Medium) for 24 hours prior to FXIIa (American Diagnostica, Stamford, Conn.) stimulation. In some experiments cells were preincubated with 5 μg/ml anti-uPAR (R&D Systems, Wiesbaden, Germany), anti-β1-integrin or anti-α5-integrin (both from Millipore, Billerica, Mass.) blocking antibodies 1-2 hours before exposure to FXIIa. In addition in some experiment 10.0 μM PD98059, 5 μM SP600125, 0.7 μM Wortmannin, 3 μM SB203580 (all from Calbiochem, Darmstadt, Germany) were added to the cell culture medium 1-2 hours prior to the addition of FXIIa. Cells were treated with 3-9 μg/ml FXIIa alone or in the presence of its specific inhibitors: Corn Trypsin Inhibitor ([…]-chloromethylketone (PCK, Bachem, Weil am Rhein, Germany) or uPAR synthetic peptides. After 24-36 hours the cells were exposed to [3H]Thymidine (0.2 μCi per well) for 6-12 hours, rinsed three times with PBS and solubilized with 0.2 ml 0.5M sodium hydroxide. 0.1 ml of the solubilized material was quantified by liquid scintillation counting (TRI-CARB® 1500, A Canbera Company, Meriden, Conn.). [^3H]Thymidine incorporation was expressed as absolute radioactivity (counts per minute per well).

The test system of another data set is p44/42. As to the kind of experiment: Western blot of p44/42 phosphorylation after FXIIa exposure. Particulars: after 30 min of FXIIa exposure. The data set is classed as cell-based, murine. On the procedure: as §1
For another data set, the system named is Akt. The data set can be described thus: Western blot of Akt phosphorylation after FXIIa exposure. The class given is cell-based, murine. Particulars: after 30 min of FXIIa exposure. On the procedure:
as §1

Data set [5] has as its system bleomycin induced lung fibrosis. The data set can be described thus: Bleomycin induced lung fibrosis in mice with intratracheal CTI.
From the text: Male mice weighing between 20-22 g were used in all experiments. Animals were kept according to NIH guidelines and experiments were undertaken with permission of local authorities. The animals were anesthetized by intraperitoneal injection of a mixture of ketamine hydrochloride and xylazine hydrochloride. Bleomycin in dosis 5U/kg body weight was given as aerosol. For bleomycin delivery, animals were orotracheally intubated and mechanically ventilated. A microsprayer (Penn-Century Inc, Philadelphia, Pa.) was filled with 100 μl of saline solution containing bleomycin, introduced into the tracheal cannula, positioned slightly above the carina and aerosol generation was achieved under end-expiratory breath arrest by rapidly emptying the syringe. Controls mice received vehicle only (0.9% saline). 5 mg/kg CTI and 8 mg/kg PCK, both diluted in 0.9% saline, were administrated intratracheally on day 9, 12, 15 and 18 in dosis or of mouse body weight, respectively. The mice were sacrificed after 21 days post application (if not indicated in the text) with a lethal dose of ketamine and xylazine.
Mice were tracheotomised and ventilated in a volume driven mode at a positive end-expiratory pressure of 0 kPa. Respiration rate was set at 20 breaths·min^−1 and ventilation pressure was recorded while inflating the lung at a tidal volume of 200 μL.
After sacrifice of animals, the chest was opened and the lungs were flushed via a catheter that was placed into the pulmonary artery with PBS buffer. Once the effluent was clear of blood, lungs were removed and placed in paraformaldehyde or nitrogen for further examination. For cells isolation lungs were placed in PBS buffer.
Paraffin-embedded, formalin-fixed lung tissue was sectioned at 5 microns and processed for immunohistochemical staining using appropriate primary antibody and ZytoChem Plus AP-Fast Red Kit according to the manufacturer's instructions (Zytomed Systems, Berlin, Germany). Negative controls were obtained in all cases by omitting the primary antibody.
[6] abbreviates: FIG. 25D,E, bleomycin application.
The mark [7] stands for this setting: day 21 after bleomycin, CTI 5 mg/kg intratracheally.
Setting [8] is: saline control animals which received CTI.

Turning to `NC(=O)c1ccc(-c2nc(-c3ccc4c(c3)OCO4)c(-c3ccccn3)[nH]2)cc1` [SB431542], the “FXII expression in response to TGF-β1 (Western blot)” value with FXII [1] was “reduction of FXII expression”. Moreover, in the data set on Smad 3 [2], the “Smad 3 phosphorylation in response to TGF-β1” value was “attenuated”. The “JNK activity / JNK1 phosphorylation in response to TGF-β1” value in the data set on JNK is “attenuated”. The “TGF-β1-induced Smad 3 translocation to the nucleus” value with Smad 3 [3] (HLF pretreated with inhibitor, TGF-β1 1 h) was “completely blocks”. For the same molecule, in the data set on Smad 3 [3] (HLF, without TGF-β1, data not shown), the “accumulation of Smad 3 in the nucleus, inhibitor alone” value is “did not affect”. Moreover, the “TGF-β1 induced Smad 3-DNA complex formation (ChIP)” value in the data set with Smad 3-SBE-272 (HLF pretreated with inhibitor 1 h prior to TGF-β1) is listed as “completely abolished”. Besides, the “interaction of Smad3 with DNA, inhibitor alone” value with Smad 3-SBE-272 (without TGF-β1, data not shown) is reported as “did not affect”. Moreover, in the data set on FXII promoter, the “TGF-β1 driven luciferase activity” value is recorded as “strongly reduced”.

B1: CTI: Corn Trypsin Inhibitor, a specific FXII activity inhibitor (Calbiochem) (protein)
chain: SAGTSCVPGWAIPHNPLPSCRWYVTSRTCGIGPRLPWPELKRRCCRELADIPAYCRCTALSILMDGAIPPGPDAQLEGRLEDLPGCPREVQRGFAATLVTEAECNLATIS
On to B1, for which the “FXII activity (chromogenic substrate)” value with FXII [4] was “blockade of FXII activity”. Also, the “FXIIa-induced proliferation ([3H]-thymidine incorporation)” value with murine lung fibroblasts is on record as “blocked”. The p44/42 phosphorylation entry with p44/42 is reported as “attenuated”. Moreover, in the data set with Akt, the Akt phosphorylation result was “attenuated”. Moreover, the “lung remodelling and collagen deposition” value in data set [5] (FIG. 25A, bleomycin-treated mice) was “largely protected against lung remodelling and collagen deposition”. In data set [5] (FIG. 25B, bleomycin-treated mice), the “survival curves (Kaplan-Meier plot)” value is on record as “significantly protected”. In data set [5] (setting [6]), the “increase in collagen content” value is listed as “significantly prevented” and the “increase in septum thickness” value is listed as “significantly prevented”. For the same molecule, in [5] (setting [7]), the “collagen accumulation (Masson-Trichrom staining)” value is recorded as “markedly reduced” and the “histologic findings in the lungs (fibrotic lesions)” value is recorded as “less fibrotic lesions”. Also, the lung compliance result in data set [5] (day 21 after bleomycin, CTI 5 mg/kg intratracheally at day 9, 12, 15 and 18) is given as “significantly improved”. Also, the mortality in [5] (day 21 post bleomycin challenge, CTI 5 mg/kg intratracheally at day 9, 12, 15 and 18) is 20%. In data set [5] (setting [8]), the “histological changes in the lung” value is listed as “no histological changes in the lung” and the “inflammatory cells infiltration into airspaces” value is “mild degree of inflammatory cells infiltration into airspaces”.
